Assay in all cases: fluorescence polarisation; saturation binding: dilution series of the protein domain added to 10 nM FITC-labelled peptide; 50 mM sodium phosphate pH 7.4, 0.05% Tween (protein dialysed in 50 mM sodium phosphate with 1 mM DTT; CASK kinase domain with 100 mM NaCl in addition); quadratic fit; technical triplets
Conditions in all cases: both partners purified

One assay addresses T1, GABARAPL1 ATG8 domain (human).
T1 construct: GABARAPL1, human, ATG8 domain; source: E. coli BL21 (DE3) Gold, purified (glutathione or Ni2+ beads)

Another assay concerns the target MAP1LC3B ATG8 domain (human, UniProt Q9GZQ8 1-120).
The next assay concerns the target T2, MAP1LC3A ATG8 domain (human).
T2 construct: MAP1LC3A, human, ATG8 domain; source: E. coli BL21 (DE3) Gold, purified (glutathione or Ni2+ beads)

Another assay has as its target T3, USP7 MATH/TRAF domain (human).
T3 construct: USP7, human, MATH/TRAF domain; source: E. coli BL21 (DE3) Gold, purified (glutathione or Ni2+ beads)

Where no end group is shown, it is not given here.

The Kd is the free concentration of one partner at which half of the binding sites on the other are occupied at equilibrium, for simple one-to-one binding. A higher Kd goes with lower affinity. As to DDDWTHLSSK (also: FITC label, position not given here) [FITC-SQSTM1], the Kd came out at 3700 nM with GABARAPL1 ATG8 domain, 1400 nM with MAP1LC3B ATG8 domain and 680 nM with MAP1LC3A ATG8 domain.

As to DYSQPSTSSSIIY (also: FITC label, position not given here) [FITC-MDM2], the affinity with USP7 MATH/TRAF domain, expressed as Kd, was 500 nM.

(Values after article PMC11369174 (Molecular Systems Biology, 2024).)
